Data published in the DeepSol protein solubility set.

Test: soluble on expression in E. coli; label from the status in PepcDB or PDB records

Sequence | soluble on expression in E. coli
MQLDIDGLKVLFPYDYVYPEQVLYMKEVKKALDARGHGLLEMPSGTGKTVSLLSLVLAYMISYPDKLDKLVYCSRTIPEIEKCVEEMKVLYDYWEKETGQPVAKITVAMSARKNLCVNEPVAALRFGNTVDSACQKLTASSARQKRAEDPTLEACDYFENFEAKSVPMQNGVWNLVKICEFWGTDKIEIFREKIQEI | not soluble
MSQTPPPKDGKNPEAMEVEDAIDEEILKMSTEDLKSRTHLLDNEIRIMRSEVQRINHSATTLKERIKENTERIKVNKTLPYLVSNVVELLDLEDNTEEEGANVDLDAQKTKCAVIKTSTRATYFLPVVGLVDPDELKPGDLVGVNKDSYLILEKLPAEYDSRVKAMEVDERPTEQYSDIGGCDKQIQELIEAVVLPMTHKDRFVNLGIHPPKGVLMYGPPGTGKTMMARAVAAQTKSTFLKLAGPQLVQMFIGDGAKLVRDAFALAKEKAPAIIFIDELDAIGTKRFDSEKAGDREVQRTMLELLNQLDGFQPNDDIKVIAATNRIDVLDPALLRSGRLDRKIELPHPNEDARARIMQIHSRKMNVNKDVNFEELARCTDDFNGAQCKAVCVEAGMIALRRDATEILHEDFMDAILEVQAKKKASLNYYA | not soluble
MGSDKIHHHHHHMLIFQYDFKIEFYNTVNSKNSIGGRLSGLRPRVVITTQNGAPDLNIFIQNTYSENNLITSKKAKLQIFNVPLDFSDFKTADIVKIYYKKFSDQQDYQFIMAGYLGAPVERIGGAENFSFECELYLLSRATFLERKFEYKNFKGSTIADAINYAFKDKAIFFMNELEKTKVIKESFACNSPKGLIEYLRRQGYVDAVIVDIGNPGQDVDLKFIFMNFEQFGAAEYKRLEDYGLLFVPQKDALGFKSGLSLYQAQVMFTHNIKIADNLSFKDRHGNTLDCKVKNTSARLSSTRECVLNLELYSKGEMYYAK | not soluble
MVLDNLGKALANTLKKIARASSVDEALIKELVRDIQRALIQADVNVRLVLQLTREIQRRALEEKPPAGISKKEHIIKIVYEELTKFLGTEAKPIEIKEKPTILLMVGIQGSGKTTTVAKLARYFQKRGYKVGVVCSDTWRPGAYHQLRQLLDRYHIEVFGNPQEKDAIKLAKEGVDYFKSKGVDIIIVDTAGRHKEDKALIEEMKQISNVIHPHEVILVIDGTIGQQAYNQALAFKEATPIGSIIVTKLDGSAKGGGALSAVAATGAPIKFIGTGEKIDDIEPFDPPRFVSRLLGLGDIQGLLEKFKELEKEVEIKEEDIERFLRGKFTLKDMYAQLEAMRKMGPLKQILRMIPGLGYSLPDDVISIGEERLKKFKVIMDSMTEEELLNPEIINYSRIKRIARGSGTSTKDVKELLDQYRQMKKLFKSMNKRQLSRLARRFGM | soluble
MAQYKGAASEAGRAMHLMKKREKQREQMEQMKQRIAEENIMKSNIDKKFSAHYDAVEAELKSSTVGLVTLNDMKAKQEALVKEREKQLAKKEQSKELQMKLEKLREKERKKEAKRKISSLSFTLEEEEEGGEEEEEAAMYEEEMEREEITTKKRKLGKNPDVDTSFLPDRDREEEENRLREELRQEWEAKQEKIKSEEIEITFSYWDGSGHRRTVKMRKGNTMQQFLQKALEILRKDFSELRSAGVEQLMYIKEDLIIPHHHSFYDFIVTKARGKSGPLFNFDVHDDVRLLSDATVEKDESHAGKVVLRSWYEKNKHIFPASRWEPYDPEKKWDKYTIR | soluble
MDDWKCYDFEKIKRFEKCENPATSCVKKFVHPTLPNDIPISINLQWSPWSECNDRTQTRTGQCFIRLERQLDDSDGLPENWSWLRKLNTMEKHLAFRDGVPLFNGLLASWLYEVESLESCLDTELGPKSKLSGYDNFFGNVLTSLFSNKTISGIKMSDNAFKYCIRTKTLDETNDALIGTYTEDKRTC | not soluble
MNHTSGITPLHPSIFHNILGLVALQTTRVGGVSASPLDSLNLGTHVGDDPERVRENERRLCAFLEISCESIVTTGQVHGTEIAVVTGPGKLDGYDALITTVRGLFVGILTADCYPILIYDRRTRACGAAHAGWQGTAGRIAEKTVNAMHNSFGTRPEDCLAWVGTGISGECYEIGGEVAARFSSRYLKPSPSGEGRQLLDLSAANRDQLIEAGIPPSQVQCSELCSYRDADRFFSYRRDNGKTGRMLALIGLRHSD | soluble
MAHHHHHHMSLEPTLRDLLHSKLQWIFVGGKGGVGKTTTSCALATLFASTPVHDAVTNTTRPRRVLLISTDPAHNLSDAFSQKFGKTPVPVNGMEETLFAMEVDPTTFTHGGFGAMLGFPGHIATDADAPSPFAALGNILKEAAGTLPGIDELSVFAEILRGVQQLSYDVVIFDTAPTGHTLRLLALPHTLNSTMEKLLSVEGLNTLIQAASAVLSSTTNLGDMSSLMPAFKQWRENVQEVQRQFTDAEKTAFICVCIPEFLSVYETERLVQELMKYDISCDSIVVNQLVLKPSSEPDCRMCNARQKIQSKYLAQIDSLYEDFHVVKMPLLSDEVRGVPALQRFAQFLLEPYDADRHGYIDVCGAAS | soluble
MEDELEKYKRENADLKKEIERLKNSSASNTYKVIFEASPDILIQLNADYKIIVIHIPNIEEERVNTVVGKDIFDVTPEYTHVKMKNALTSVFRDGEVVKYFSEGETMGSYRYYDNYLSPIKDAEGNITTVYFRSRDIT | not soluble
QGALYLVPTPIGNLEDMTFRAIRMLKEADIIAAEDTRNTVKLLNHFEITTRMTSYHQFTKENKEDNIIQRMLDGEVVALVSDAGMPSISDPGYELVQNALNANIPVIPLPGA | not soluble
GMDMKKHGLSIGINRIESVFFVTLKAIGTLTHEDYLVITPMLEGALSQVDQPKVSLFLDATELDGWDLRAAWDDLKLGLKHKSEFERVAILGNKDWQEWAAKIGSWFIAGEIKYFEDEDDALKWLRY | soluble
MNIDVEFHIRHNYPWNKLPANVRQSLGNSQREYEKQVVLYSIRNQLRYRNNLVKHVKKDERRYYEELLKYSRDHLMLYPYHLSDIVCYVCL | not soluble
RQLTVLERVAPTITGNLENQTTSIGESIEVSCTASGNPPPQIMWFKDNETLVEDSGIVLKDGNRNLTIRRVRKEDEGLYTCQACSVLGCAKVEAFFIIEGAQEKTNLE | soluble
MSLAKASAESLGGTVASEESIASYIGAGILSSGGNAVDAAVATSLALTVLIPHLGGVGGDFFMLYRSPEGRVFFVNGSGFAPRRLTREEVLGRGLQEIPESGPLSPTTPGYLAGLYHSWRSFGTMEWASLVKPARLLASRGFPLPPSTARSLKLRRECLEADPGSREAVLKTLPREEGSPARLPGLAALLSGVEEDPLYLYQGEPAEALEEYLASIGGVMGAEDLAGTRGFTAEPLYSEYRGWKVWEMPPNTQGVTTLHLLMLLEEEELPEPFSPERVDILAGLARMAYSIRDRYVGDPRYMPIDPHELARKETLLKLLGQEESNGSKATGDTTFFAVADREGGIVAGIQSLFYPWGSCVTEPRFQVTLNNRARGFTLKEGLPSTLRPGAFPLHTLSSVIMEQRERVIALGASGGHLRPQQHALFVTNIVDYGMNVLDAINAPRAVWDPGRGEILCEEGFGCRPSWRKVERIGVANAVEVAGSVKRGYTDMRGDGLPAVEGHHHHHH | not soluble
MSLNQQYNAFSVLVVDDELGMQAILKKALGKLFSHVDTAGSIEEAEQLRNSRHYDLILLDINLPGRSGIEWEEAFEDDEKRADVIFMTGYADLEIAIRALQLGASDFILKPFNLEQMLKAVSRCMDRRLNERMQYAMKRDYQRHNTSEIIGGSEKTRQLKQLITQFAPSRASVLVEGESGTGKELVARGIHQASGRTGPFVPINCGAIAPELLESELFGHTSGAFTGAKKSREGLFRVANGGTLFLDEIGEMPLSMQASLLRVLEQRTIRPVGSEREISIDVRIVAATNRNLQEEVNQGNFRSDLYYRLNVLKIEVCPLRERKTDLFELVPFFSNMLTRELGMPAPKWAHEDMEAMSEYDWPGNIRELKNLIERCILLGKPPAHYWRELNGGHSLPNVSEGHHHHHH | soluble
MSLAATGDAGWRIRLREAAVVAGPTVLLGEVADPVGEMPAAVWRDLAARPLWAAPADAGRPMIVNKVRLGEALRAALGATADSCLLPPSMALQRGGAVLREGDLRDIVVRTMTPQLASMGGEASFSDFRLPPFAFLEHPQQKVILEPLQPAPGRLSLRFAVLEMDGAVVRRFTGTAFLDVWLTVPCAAQPLNRGDRLEVEKVTWMRKNIAHLRAAPWDGRGGPWQLQRPVGAGQVVYQDDVAPNPAVTRGGIVTLVYESPALRLAVQGEALADGMPGETIQVRNLQSRKQVYATVRDGSTVVVREGHHHHHH | soluble
MGLLLYRELVHKLKTKYKKIAGKGENQKDKTLPWHLETDQLTNRHPNHKVRIPYIDEVFDMLAKMTAKNQLTLPKSVTTAVGAGEYFEIEVRNGQIVLTPVRIQRADAVRAKLAELDLGERDIMDAVTWARQPVKGSATE | not soluble
MSERSVSKQDQEKRWYTVLAPEEFDRAELGETLAEEPDQVYDRTIQAALSDVRDGGDNNIKLTFQIDDVGSDSASTQFVQAELTRDYQRSLVRRGSSKVAVTVTVLTTDDYRVRIQPVAYTTKQADQSQQHAIRRTMIDLVEEAGEERTFEALLNSIIEGRLSSAIYDEANTIYPLRRVEVEKATLEAHPEEVHEEEETAVDFSGELEHHHHHH | soluble
MLDQVCQLARNAGDAIMQVYDGAKPMDVVSKADNSPVTAADIAAHTVIMDGLRTLTPDIPVLSEEDPPGWEVRQHWQRYWLVDPLDGTKEFIKRNGEFTVNIALIDHGKPILGVVYAPVMNVMYSAAEGKAWKEECGVRKQIQVRDARPPLVVISRSHADAELKEYLQQLGEHQTTSIGSSLKFCLVAEGQAQLYPRFGPTNIWDTAAGHAVAAAAGAHVHDWQGKPLDYTPRESFLNPGFRVSIY | not soluble
SRMMVIKNNSEETKSREYIVIGQVFFASSDKFIASFDFKEVIECVTIDLSAAHFWDITSASALDKVVVKFRREGTQVELIGMNQATKTIVDKFGVHDKPEEVEKLLAG | not soluble
MRPSSRSAGRRTSMRLTTRDFDRTGRPLRFTELGFGSSPLGNLYRAISEEEAQALLERAWAGGIRYFDTAPLYGYGLAEERLGRFLAGHPRSDYVLSTKVGRLLRPVEPGEARDGLGKFFEVPERKERFDYGYDGVMRSLEASLDRLGLDRVDVLYAHDLDLFTHGSQEALEARLAEFMAGGYRALVELRDQGVISAFGAGVNEWQPCQWLAERGEFDLFLLAGRYTLLEQEALESFLPLAEERGIGIVIGGPYNSGVLATGPKPGSFYDYRLAPQAVLDRVAQIHTICERWGVRMFEAAFQFPLRHPAVLSVIPGPQSVGEVMENRIAADAELPPGLWEDLKVAGLLRPDAPV | not soluble
MSLEAAPAGSGPLRRTFLVPEIKSLDQYDFSRAKAAASLAWVLRAAFGGAEHVPPELWEPFYTDQYAQEHVKPPVTRLLLSAELYCRAWRQALPQLEPSPSPSALLALLARRGTVPSLPEHPVREADLKHQPILMGAHLAVIDALMVAFSFEWTKTLPGPLALSSLEHKLLFWVDTTVRRLQEKTEQEAAQRASPAAPLDGASEGHHHHHH | not soluble
MGSDKIHHHHHHLNNQIKIFEGNKIRSIWDNEKEEWYFSVVDVVAVLTESKDPQVYWRVLKKRLKEEGNKTVTNCNALKMKAADGKMRLTDVADMQGIFRIIQSVPSPKAEPFKMWLAEVGKERIDEIIDPELTIDRALETYLKKGYSREWINQRLQAIQVRKELTDTWQDHGVEKGKEYAILTNEITKAWSGMTTREYKDLKGLKKENLRDNMSTLELVLNMLAEATTTELTNATHPQGLEENKKVAKRGGSIAGNARKEIEQETGKSVITSKNAIDFVKLIEDVSSKEFEDKDKKDKD | not soluble
MGSDKIHHHHHHMREEAPSRAQRVIDNNDILFQCVRPYQKNNYIHRILNTSNQQWVASTGYAQIRTTELPNYIYHLLNTDEFNRKVMVRCTGSSYPAINSEDLATIHLYYTPDKKEQLKISRLLDLLDKRIATQNKIIEKLQSLIKGIAQHCIKESTSGNTYVKLGDICQITTGKLDANAQVDNGIYPFFTCAEQPFKIDSFAFDTEALLISGNGANLGYINYYKGKFNAYQRTVSIR | not soluble
